Columns and labels:
Experiment in all cases: two-hybrid library CCNG1;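 also: natural log of median RNA to DNA barcode read ratio; higher means stronger binding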
O10 = target: T1, O10
T1 chain: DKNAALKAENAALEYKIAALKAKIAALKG

O11 = target: T2, O11
T2 chain: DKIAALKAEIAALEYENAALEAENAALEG

O12 = target: T3, O12
T3 chain: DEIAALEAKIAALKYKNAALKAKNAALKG

O13 = target: T4, O13
T4 chain: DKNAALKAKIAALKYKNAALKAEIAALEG

O14 = target: T5, O14
T5 chain: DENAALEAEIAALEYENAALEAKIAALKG

O15 = target: T6, O15
T6 chain: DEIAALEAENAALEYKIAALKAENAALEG

O16 = target: T7, O16
T7 chain: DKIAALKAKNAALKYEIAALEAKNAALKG

O2 = target: T8, O2
T8 chain: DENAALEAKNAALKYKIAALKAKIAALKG

O3 = target: T9, O3
T9 chain: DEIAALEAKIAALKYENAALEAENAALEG

O4 = target: T10, O4
T10 chain: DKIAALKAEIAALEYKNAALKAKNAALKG

O5 = target: T11, O5
T11 chain: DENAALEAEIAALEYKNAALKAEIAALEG

O6 = target: T12, O6
T12 chain: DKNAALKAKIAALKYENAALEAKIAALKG

O7 = target: T13, O7
T13 chain: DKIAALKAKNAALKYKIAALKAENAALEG

O8 = target: T14, O8
T14 chain: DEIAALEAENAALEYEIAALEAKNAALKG

O9 = target: T15, O9
T15 chain: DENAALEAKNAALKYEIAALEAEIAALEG

4H1359-bH = target: T16, 4H1359-bH
T16 chain: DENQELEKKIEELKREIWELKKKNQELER

4H1393-bH = target: T17, 4H1393-bH
T17 chain: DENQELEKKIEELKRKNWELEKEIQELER

4H1449-bH = target: T18, 4H1449-bH
T18 chain: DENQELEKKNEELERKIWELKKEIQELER

4H1629-bH = target: T19, 4H1629-bH
T19 chain: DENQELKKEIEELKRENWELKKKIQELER

4H1710-bH = target: T20, 4H1710-bH
T20 chain: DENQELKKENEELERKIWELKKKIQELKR

4H1804-bH = target: T21, 4H1804-bH
T21 chain: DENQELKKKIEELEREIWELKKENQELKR

4H1985-bH = target: T22, 4H1985-bH
T22 chain: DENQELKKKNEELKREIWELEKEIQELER

4H3129-bH = target: T23, 4H3129-bH
T23 chain: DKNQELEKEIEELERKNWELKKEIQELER

4H3172-bH = target: T24, 4H3172-bH
T24 chain: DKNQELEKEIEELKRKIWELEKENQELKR

4H3414-bH = target: T25, 4H3414-bH
T25 chain: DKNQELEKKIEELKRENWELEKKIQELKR

4H3631-bH = target: T26, 4H3631-bH
T26 chain: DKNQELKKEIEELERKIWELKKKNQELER

4H3638-bH = target: T27, 4H3638-bH
T27 chain: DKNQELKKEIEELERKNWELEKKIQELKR

4H3817-bH = target: T28, 4H3817-bH
T28 chain: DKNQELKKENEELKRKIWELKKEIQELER

4H3974-bH = target: T29, 4H3974-bH
T29 chain: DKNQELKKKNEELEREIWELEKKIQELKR

4H570-bH = target: T30, 4H570-bH
T30 chain: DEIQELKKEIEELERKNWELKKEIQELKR

4H584-bH = target: T31, 4H584-bH
T31 chain: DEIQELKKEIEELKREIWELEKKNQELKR

4H619-bH = target: T32, 4H619-bH
T32 chain: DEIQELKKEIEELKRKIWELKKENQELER

4H850-bH = target: T33, 4H850-bH
T33 chain: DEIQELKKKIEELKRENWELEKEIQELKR

4H906-bH = target: T34, 4H906-bH
T34 chain: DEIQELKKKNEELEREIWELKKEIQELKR

4H932-bN = target: T35, 4H932-bN
T35 chain: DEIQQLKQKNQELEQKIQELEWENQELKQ

P11bHq = target: T36, P11bHq
T36 chain: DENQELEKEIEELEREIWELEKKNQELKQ

P12bHq = target: T37, P12bHq
T37 chain: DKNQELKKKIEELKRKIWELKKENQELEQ

P1bHq = target: T38, P1bHq
T38 chain: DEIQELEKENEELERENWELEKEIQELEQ

P2bHq = target: T39, P2bHq
T39 chain: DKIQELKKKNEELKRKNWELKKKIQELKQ

P3bHq = target: T40, P3bHq
T40 chain: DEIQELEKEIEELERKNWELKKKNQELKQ

P4bHq = target: T41, P4bHq
T41 chain: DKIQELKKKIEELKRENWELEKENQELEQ

P5bHq = target: T42, P5bHq
T42 chain: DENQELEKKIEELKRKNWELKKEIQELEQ

P6bHq = target: T43, P6bHq
T43 chain: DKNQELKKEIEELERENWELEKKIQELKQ

P7bHq = target: T44, P7bHq
T44 chain: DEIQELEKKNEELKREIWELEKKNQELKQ

P8bHq = target: T45, P8bHq
T45 chain: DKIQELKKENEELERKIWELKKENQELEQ

P9bHq = target: T46, P9bHq
T46 chain: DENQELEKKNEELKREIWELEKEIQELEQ

Binder DKNAALKAENAALEYKIAALKAKIAALKG [O10] has an interaction score (O10) of -2.12, an interaction score (O11) of -1.61 and an interaction score (O12) of -2.06. It also gave an interaction score (O13) of -1.79, an interaction score (O14) of -2.41 and an interaction score (O15) of -1.1. It also gave an interaction score (O16) of -1.79, an interaction score (O2) of -0.272 and an interaction score (O3) of -1.83. It also gave an interaction score (O4) of -1.67, an interaction score (O5) of -0.483 and an interaction score (O6) of -2.48. The interaction score (O7) was -2.17, the interaction score (O8) was -1.57 and the interaction score (O9) was 2.21.

DENQELEKKIEELKREIWELKKKNQELER [4H1359-bH] showed an interaction score (4H1359-bH) of 0.989, an interaction score (4H1393-bH) of -0.756 and an interaction score (4H1449-bH) of 0.00778. It also gave an interaction score (4H1629-bH) of -0.6, an interaction score (4H1710-bH) of -0.389 and an interaction score (4H1804-bH) of 0.574. The interaction score (4H1985-bH) was 0.67, the interaction score (4H3129-bH) was -0.249 and the interaction score (4H3172-bH) was -0.46. For the same binder, the interaction score (4H3414-bH) was -0.291, the interaction score (4H3631-bH) was 0.884 and the interaction score (4H3638-bH) was -0.989. It also gave an interaction score (4H3817-bH) of 0.0285, an interaction score (4H3974-bH) of 0.477 and an interaction score (4H570-bH) of -1.09. The interaction score (4H584-bH) was 0.303, the interaction score (4H619-bH) was -0.165 and the interaction score (4H850-bH) was -0.848. It also gave an interaction score (4H906-bH) of 0.0222 and an interaction score (4H932-bN) of -1.75.

With DENQELEKEIEELEREIWELEKKNQELKQ [P11bHq] the interaction score (P11bHq) was 1.25, the interaction score (P12bHq) was 1.78 and the interaction score (P1bHq) was 0.41. It also gave an interaction score (P2bHq) of 0.67, an interaction score (P3bHq) of 1.18 and an interaction score (P4bHq) of 1.65. It also gave an interaction score (P5bHq) of 0.352, an interaction score (P6bHq) of 0.74 and an interaction score (P7bHq) of -1.22. The interaction score (P8bHq) was 0.862 and the interaction score (P9bHq) was 0.854.

— article PMC10397247
